Experiments:
[1] = biological target: BIRC6 (human, wild type, recombinant) (human) (UniProt Q9NR09); test: mass photometry; settings: remark: other sources report otherwise
[2] = biological target: BIRC6 (human, wild type, recombinant) (human) (UniProt Q9NR09); test: cryo-EM structure; settings: remark: other sources report otherwise
[3] = biological target: the molecule itself; test: cryo-EM structure

Molecule	stoichiometry N [1]	stoichiometry N [2]	stoichiometry N [3]
BIRC6 (human, wild type, recombinant), Q9NR09 1-4857	2	2	–
SMAC (natural protein) AVPIAQKSEPHSLSSEALMRRAVSLVTDSTSTFLSQTTYALIEAITEYTKAVYTLTSLYRQYTSLLGKMNSEEEDEVWQVIIGARAEMTSKHQEYLKLETTWMTAVGLSEMAAEAAYQTGADQASITARNHIQLVKLQVEEVHQLSRKAETKLAEAQIEELRQKTQEEGEERAESEQEAYLRED	–	–	2

Source: paper doi:10.1101/2022.08.30.505823 (bioRxiv, 2022)
